The values below come from patent publication US20230174652A1 (Regeneron, published 2023).

What all share (assay): cell-based or functional assay
Assay [1] addresses T1, human CD28 (human, UniProt P10747 19-220).
Assay [2] deals with T1, human CD28. The source holds these as a separate data set.
The target in assay [3] is T1, human CD28. The source holds these as a separate data set.
Assay [4] addresses T1, human CD28. This is another data set of the same source.

B1: REGN5705 (antibody, V domains shown)
VH: QVQLQESGPGLVKPSETLSLTCTVSGGSISSYYWSWIRQPPGKGLEWIGYIYYSGITHYNPSLKSRVTISVDTSKIQFSLKLSSVTAADTAVYYCARWGVRRDYYYYGMDVWGQGTTVTVSS
VL: not shown
For B1, in assay [1], the “EC50 [M], IL-2 release, primary human CD4+ T-cells + Raji/CD80 and CD86 negative, 2 nM REGN1945 (isotype control)” value was 1.11e-10 M; the “Max RFU, IL-2 release, primary human CD4+ T-cells + HEK293/hCD20, 2 nM REGN1945 (isotype control)” value worked out at 2290 RFU; the “Max RFU, IL-2 release, primary human CD4+ T-cells + HEK293/hCD20/hCD22, 2 nM REGN1945 (isotype control)” value stood at 2950 RFU; the “Max RFU, IL-2 release, primary human CD4+ T-cells + Raji/CD80 and CD86 negative, 2 nM REGN1945 (isotype control)” value turned out to be 49500 RFU. For the same molecule, in assay [2], the “EC50 [M], luciferase activity, reporter T-cells + HEK293/hCD20, 200 pM REGN1945 (no TCR stimulation)” value came out at 6.23e-09 M; the “EC50 [M], luciferase activity, reporter T-cells + HEK293/hCD20/hCD22, 200 pM REGN1945 (no TCR stimulation)” value is 8.45e-09 M; the “EC50 [M], luciferase activity, reporter T-cells + Raji/CD80 and CD86 negative, 200 pM REGN1945 (no TCR stimulation)” value was determined as 7.88e-09 M; the “Max RLU, luciferase activity, reporter T-cells + HEK293/hCD20, 200 pM REGN1945 (no TCR stimulation)” value worked out at 25000 RLU. Also, in assay [2], the “Max RLU, luciferase activity, reporter T-cells + HEK293/hCD20/hCD22, 200 pM REGN1945 (no TCR stimulation)” value worked out at 25100 RLU; the “Max RLU, luciferase activity, reporter T-cells + Raji/CD80 and CD86 negative, 200 pM REGN1945 (no TCR stimulation)” value is 33200 RLU. Also, in assay [3], the “EC50 [M], IL-2 release, primary human CD4+ T-cells + HEK293/hCD20, 2 nM REGN2281 (αCD20 x αCD3)” value amounted to 2.23e-09 M; the “EC50 [M], IL-2 release, primary human CD4+ T-cells + Raji/CD80 and CD86 negative, 2 nM REGN2281 (αCD20 x αCD3)” value amounted to 4.51e-11 M; the “Max RFU, IL-2 release, primary human CD4+ T-cells + HEK293/hCD20, 2 nM REGN2281 (αCD20 x αCD3)” value was determined as 68900 RFU; the “Max RFU, IL-2 release, primary human CD4+ T-cells + HEK293/hCD20/hCD22, 2 nM REGN2281 (αCD20 x αCD3)” value stood at 57400 RFU. Further, in assay [3], the “Max RFU, IL-2 release, primary human CD4+ T-cells + Raji/CD80 and CD86 negative, 2 nM REGN2281 (αCD20 x αCD3)” value worked out at 249000 RFU. Moreover, in assay [4], the “EC50 [M], luciferase activity, reporter T-cells + HEK293/hCD20, 200 pM REGN2281 (αCD20 x αCD3)” value stood at 2.63e-10 M; the “EC50 [M], luciferase activity, reporter T-cells + HEK293/hCD20/hCD22, 200 pM REGN2281 (αCD20 x αCD3)” value was found to be 7.7e-11 M; the “EC50 [M], luciferase activity, reporter T-cells + Raji/CD80 and CD86 negative, 200 pM REGN2281 (αCD20 x αCD3)” value was 4.33e-10 M; the “Max RLU, luciferase activity, reporter T-cells + HEK293/hCD20, 200 pM REGN2281 (αCD20 x αCD3)” value stood at 409000 RLU. In assay [4], the “Max RLU, luciferase activity, reporter T-cells + HEK293/hCD20/hCD22, 200 pM REGN2281 (αCD20 x αCD3)” value worked out at 171000 RLU; the “Max RLU, luciferase activity, reporter T-cells + Raji/CD80 and CD86 negative, 200 pM REGN2281 (αCD20 x αCD3)” value turned out to be 569000 RLU.
